Measurements as given in PMC4138078 (2014).
Ends that are not written are not given here.

Columns and labels:
[1] = molecular target: T1, CAL (CFTR-associated ligand) PDZ (Homo sapiens, UniProt Q9HD26); test: SPR
[2] = molecular target: T1, CAL (CFTR-associated ligand) PDZ; test: ITC

Question: Which results are given for ANSRWK(Ac)TSII [iCAL36 P-4 Ac-K]?
Answer: Kd [1]: 64.6 µM; Kd [2]: 49.4 µM

Question: How did the Kd [1] turn out when ANSRWPTSK(Ac)I [iCAL36 P-1 Ac-K] was run?
Answer: 39.5 µM

Question: And the Kd [2]?
Answer: 26.4 µM

Question: How did the Kd [1] turn out when ANSRK(Ac)PTSII [iCAL36 P-5 Ac-K] was run?
Answer: 298 µM

Question: With ANSRWPTSKI [iCAL36 P-1 FB-K] as the binder, how does the Kd [1] read?
Answer: 27.9 µM

Question: And the Kd [2]?
Answer: 12.8 µM

Question: How did the Kd [1] turn out when ANSRWPTSKI [iCAL36 P-1 Tfa-K] was run?
Answer: 22.3 µM

Question: What about the Kd [2] of the same binder?
Answer: 34.5 µM

Question: How did the Kd [1] turn out when ANSRWPTSKI [iCAL36 P-1 BB-K] was run?
Answer: 20 µM

Question: What about the Kd [2] of the same binder?
Answer: 20.7 µM

Question: With ANSRWPK(Ac)SII [iCAL36 P-3 Ac-K] as the binder, how does the Kd [1] read?
Answer: 122 µM

Question: What about the Kd [2] of the same binder?
Answer: 91.9 µM
